Our source for the IC50, Kd and fold greater affinity than BIDBH3 peptide values is patent publication US20160200786A1.

In test [1] the target is GST-BCL-2δC21 fusion protein [GST: P08515]. As to the kind of experiment: fluorescence polarization, unlabelled peptide displacing 25 nM fluoresceinated BIDBH3 from 1 µM GST-BCL-2. (Fluorescence polarisation rises when a labelled molecule tumbles more slowly, as on binding a larger partner.)
Test [2] shares this target. The test can be described thus: fluorescence polarization, 25 nM fluorescein-peptide titrated with GST-BCL-2, 37 C.
Test [3] shares this target. The test can be described thus: fluorescence polarization, unlabelled peptide displacing 25 nM fluoresceinated BIDBH3 from 1 µM GST-BCL-2; SD +/- 60.
The target is the same in test [4]. As to the kind of experiment: fluorescence polarization, 25 nM fluorescein-peptide titrated with GST-BCL-2, 37 C; SD +/- 6.
For test [5] the target is unchanged. As to the kind of experiment: fluorescence polarization, 25 nM fluorescein-peptide titrated with GST-BCL-2, 37 C; SD +/- 272.
Test [6] has the same target. As to the kind of experiment: fluorescence polarization, unlabelled peptide displacing 25 nM fluoresceinated BIDBH3 from 1 µM GST-BCL-2; SD +/- 1648.
Test [7] shares this target. The test can be described thus: fluorescence polarization, Kd of BADBH3 against Kd of BIDBH3 on BCL-2.
The target is the same in test [8]. The test can be described thus: fluorescence polarization, 25 nM fluorescein-peptide titrated with GST-BCL-2, 37 C; SD +/- 11.

Ends that are not written are not given here. Some results are limits rather than exact numbers.

In the case of NOXAABH3 (peptide), the half-inhibitory concentration (IC50) in test [1] is greater than 30 µM. In test [2], the equilibrium dissociation constant (Kd) is greater than 1 µM.

As to NOXABBH3 (peptide), the IC50 in test [1] was greater than 30 µM. The same molecule yielded a Kd in test [2] greater than 1 µM.

Turning to LWAAQRYGRELRRMSDEFEGSFKGL (not fully specified) [mBADBH3], the half-maximal inhibitory concentration (IC50) in test [3] is 0.173 µM. This molecule also displayed an equilibrium dissociation constant (Kd) in test [4] of 0.039 µM.

EDIIRNIARHAAQVGASMDR (not fully specified) [BIDBH3 mut] registered an IC50 in test [1] greater than 30 µM. Also, the Kd in test [2] is greater than 1 µM.

B1: BCLXBH3 (peptide)
peptide: VIPMAAVKQALREAGDEFEL
modifications: fluorescein at the amino-terminus via an AHA linker in the Kd assays; unlabelled as competitor and on mitochondria
B1 gave a concentration for half-maximal inhibition (IC50) in test [1] greater than 30 µM. Moreover, in test [2], the Kd was greater than 1 µM.

MEGSDALALRLACIGDEMDV (not fully specified) [BIKBH3]: the dissociation constant (Kd) in test [5] was found to be 0.485 µM. The IC50 in test [6] was found to be 4.92 µM.

In turn, NLWAAQRYGRELRRMSDEFVDSFKK (not fully specified) [BADBH3] had a fold greater affinity than BIDBH3 peptide in test [7] of 5 fold. In test [8], this molecule had a Kd of 0.041 µM.

For orientation: IC50 means the concentration that inhibits the measured activity by half. Lower therefore signals greater potency in that assay. For orientation: Kd means the equilibrium constant for the complex coming apart. A low value points to tighter binding.
